Measurements as given in PMC6293278.

Target: Taxol-stabilized microtubules (polymerized purified tubulin) (UniProt P02550)
Test: Taxol-stabilized microtubule co-sedimentation assay
Conditions: 3:1 MT:MAP1S LC ratio; MAP1S LC pre-incubated with CDKL5 (WT according to the lane labels of panel E; the key of panel F prints CDKL5 KD); n = 3 technical …; parent: est. 13; read off a plot

“Strep(II)-MAP1S LC WT (microtubule-associated protein 1S light chain) (from UniProt P0C5W1) S786A; S812A” gave an other: Soluble MAP1S LC (%) of 4.2%.
